Measurements reported in article PMC5943153 (Molecular microbiology, 2018).

T1: T25-HP1492 (Nfu) (Helicobacter pylori strain 26695, UniProt O26025 2-89)
T1 sequence (looked up): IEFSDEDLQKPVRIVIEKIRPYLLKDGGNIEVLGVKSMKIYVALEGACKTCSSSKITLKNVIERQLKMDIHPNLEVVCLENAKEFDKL

T2: HP0221-T25 (NifU) (Helicobacter pylori strain 26695, UniProt O25009 2-326)
T2 sequence (looked up): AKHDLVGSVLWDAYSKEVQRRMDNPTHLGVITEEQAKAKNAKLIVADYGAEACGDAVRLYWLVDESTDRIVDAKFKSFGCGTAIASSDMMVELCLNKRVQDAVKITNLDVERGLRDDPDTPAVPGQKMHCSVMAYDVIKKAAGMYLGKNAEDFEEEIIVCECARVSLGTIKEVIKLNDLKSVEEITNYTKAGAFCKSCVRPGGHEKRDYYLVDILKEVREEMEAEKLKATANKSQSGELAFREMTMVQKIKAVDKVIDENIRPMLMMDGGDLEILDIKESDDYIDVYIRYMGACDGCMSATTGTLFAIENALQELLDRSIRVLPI

T3: T25-HP0221 (NifU) (Helicobacter pylori strain 26695, UniProt O25009 2-326)
T3 sequence (looked up): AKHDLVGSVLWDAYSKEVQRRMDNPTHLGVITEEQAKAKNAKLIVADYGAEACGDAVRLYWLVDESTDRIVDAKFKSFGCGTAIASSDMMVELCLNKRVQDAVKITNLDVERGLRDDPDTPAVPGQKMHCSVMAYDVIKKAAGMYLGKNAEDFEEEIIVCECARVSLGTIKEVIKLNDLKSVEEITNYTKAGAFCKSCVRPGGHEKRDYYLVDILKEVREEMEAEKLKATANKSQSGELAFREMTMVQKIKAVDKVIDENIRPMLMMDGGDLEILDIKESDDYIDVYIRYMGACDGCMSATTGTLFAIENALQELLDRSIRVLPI


What was measured:
Assay in all cases: two-hybrid
T25-HP1492 (Nfu) = target: T1, T25-HP1492 (Nfu)
HP0221-T25 (NifU) = target: T2, HP0221-T25 (NifU)
T25-HP0221 (NifU) = target: T3, T25-HP0221 (NifU)

Binder	growth OD595 in M63-maltose (T25-HP1492 (Nfu)) [OD595]	growth OD595 in M63-maltose (HP0221-T25 (NifU)) [OD595]	growth OD595 in M63-maltose (T25-HP0221 (NifU)) [OD595]
T18-HP0117 (natural protein, Helicobacter pylori strain 26695, UniProt P56080 2-308, looked up) AKENPPIVFGPVLSRRFGKSLGVDLSPSKKQCNYNCIYCELGKAKPIERMEEVIKVETLINAIQNALNNLTTPIDVLTITANGEPTLYPHLLELIQSIKPFLKGVKTLILSNGSLFYEPKVQQALKEFDIVKFSLDAIDLKAFERVDKPYSKDINKILEGILRFSQIYQGQLVAEVLLIKGVNDSANNLKLIAAFLKQINIARVDLSTIDRPSSFKAPKLSEDELLKCSLFFEGLCVSLPKRSITQAKKLISCGIDELLALISRRPLSAEEAPLILDSNAFKHLETLLNHKQITIKKVGSLEFYCAF	0.09	–	–
T18-HP0656 (natural protein, Helicobacter pylori strain 26695, UniProt O25370 2-383, looked up) ARNVKGYASTLTWTITRNTLNFLWEQGFKMRINREEILDLMKNAPLKELGQRALRVKQRLHPENLTTFIVDRNINYTNICFVDCKFCAFKRTLKEKDAYVLSYEEIDQKIEELLAIGGTQILFQGGVHPQLKIDYYENLVSHIAQKFPTITIHGFSAVEIDYISKISKLSLKEVLERLKNAGLSSIPGAGAEVLSDRVRDVIAPKKLSSDRWIEVHRMAHLCGIKSTATMMFGSVDNEEDVVEHLQRVRDLQDETGGFRAFILWSFQPNNTPLKEEIPSIKKASSNRYLRYLACSRIFLDNIQNIQSSWVTQGSMIGQLALLFGANDLGSVMMEENVVKAAGTSFCMNEAGMIELIEDIGSVAAKRNTAYEILKRYPAKAKV	–	0.26	0.13
T18-HP0665 (natural protein, Helicobacter pylori strain 26695, UniProt O25376 2-457, looked up) QTIDFEKFSQYSKPGPRYTSYPTAVEFNENFNEESLKTAFFNHDNLKNPMPLSLYTHLPFCRSACYFCACSVIYTSLEEKKIRYISYLKKELALLKNAMDTNREVAQFHYGGGTPTFFSPIQLDEITQSIQEVFPNFSKDIEMSCEIDPRHFTKEHMQTLFDRGFNRLSFGVQDFDFEVQKAIHRIQPFEMVQESVKLARDYGIKSINFDLIYGLPNQTKEGFLKTLEWVLKLDPDRLAVFNYAHVPWVKKTMRKIDETLLPSLRDKLEILESLISFLEKANYQMIGMDHFAKSDNELYLALQKAELRRNFQGYTTKKFTQTIGIGVTSIGEGGDYYTQNYKDLHHYEKALDLGHLPVERGVALSQEDVLRKEVIMQMMSNLKLDYSKIEEKFSVDFKAHFKKELEKLKPYEEAGLLSFNSKGFEMTKTGGMLVRNMAMEFDAYLRGGEKHFSKTL	–	0.06	0.07
T18-HP0779 (natural protein, Helicobacter pylori strain 26695, UniProt P56418 2-852, looked up) KDFLEDYKKSVSERGSEGIPPLPLNAKQVQAVVEILTKDPTNAAFAKELLIHRVSPGVDEGAKVKAEFLAKLSQKKLECVHISALEATTLLGTMLGGYNVEPLIMGLESQDKNIAKESAKALKTTLLVYGSFDKIAAMSKTNALAKEVLESWANAEWFLNKEPLNECIEACVFKIDGETNTDDLSPASDAFTRSDIPLHAKAMLKNRIENYEQRIKAIKTKGVPVAYVGDVVGTGSSRKSATNSIMWHFGKDIPFVPNKRSGGIVIGGVIAPIFFATCEDSGALPIVADVKDLKEGDLIKIYPYKGEITLNDKVVSTFKLEPETLLDEVRASGRIPLIIGRGLTNKARKFLGLGESEAFKKPSAPKSDAKGYTLAQKIVGHACGVKGILPGTYCEPKVTTVGSQDTTGAMTRDEVKELASLKFDAPFVLQSFCHTAAYPKPSDVSLHATLPGFITQRGGVALHPGDGVIHTWLNRMGLPDTLGTGGDSHTRFPLGISFPAGSGLVAFAAVTGTMPLNMPESVLVRFKGEMNPGITLRDLVNAIPYYAIKKGLLTVEKKGKINVFNGRILEIEGLPDIKMEQAFELSDASAERSAAACVVRLNKEPMIEYLKSNIKLIDEMIASGYEDKETLKKRRDAMQAWVDNPVLLEPDSNAQYAAVIEIDVAEITEPILACPNDPDDVATLSEVLADTTGKRPHAIDEVFIGSCMTNIGHFRAFGEIVKNAPPSQARLWVVPPSKMDEQELINEGYYAIFGAAGARTEVPGCSLCMGNQARVRDNAVVFSTSTRNFDNRMGRGAKVYLGSAELGAACALLGRIPTKEEYMNLVSEKLESQKDKIYRYMNFNLMENFRL	0.17	–	–
T18-HP0285 (natural protein, Helicobacter pylori strain 26695, UniProt P56130 2-418, looked up) KKVYFKTFGCRTNLFDTQVMSENLKDFSTTLEEQEADIIIINSCTVTNGADSAVRSYAKKMARLDKEVLFTGCGVKTQGKELFEKGFLKGVFGHDNKEKINALLQEKKRFFIDDNLENKHLDTTMVSEFVGKTRAFIKIQEGCDFDCNYCIIPSVRGRARSFEERKILEQVGLLCSKGVQEVVLTGTNVGSYGKDRGSNIARLIKKLSQIAGLKRIRIGSLEPNQINDEFLELLEEDFLEKHLHIALQHSHDLMLERMNRRNRTKSDRELLETIASKNFAIGTDFIVGHPGESGSVFEKAFKNLESLPLTHIHPFIYSKRKDTPSSLMTDSVSLEDSKKRLNAIKDLIFHKNKAFRQLQLKLNTPLKALVEVQKDGEFKALDQFFNPIKIKSDKPLRASFLEIKEYEIKERENHAVF	0.21	–	–
T18-HP0625 (natural protein, Helicobacter pylori strain 26695, UniProt O25342 2-359, looked up) LENRVKTKQIFIGGVAIGGDAPISTQSMTFSKTADIESTKNQIDRLKLAGADLVRVAVSNEKDALALKELKKVSPLPLIADIHFHYKFALIAAQSVDAIRINPGNIGSKEKIKAVVDACKEKNIPIRIGVNAGSLEKQFDQKYGPTPKGMVESALYNAKLLEDLDFTNFKISLKASDVIRTIEAYRMLRPLVIYPFHLGVTEAGNLFSSSIKSAMALGGLLMEGIGDTMRVSITGELENEIKVARAILRHSGRLKEGINWISCPTCGRIEANLVDMAIKVEKRLSHIKTPLDISVMGCVVNALGEAKHADMAIAFGNRSGLIIKEGKVIHKLAEKDLFETFVIEVENLAKEREKSLKD	–	0.37	0.11
T18-HP1222 (natural protein, Helicobacter pylori strain 26695, UniProt O25820 2-948, looked up) RVEENYHAFFTEASGFLNERIFKDYLRRLAYGIDASCYRYIPKIVAWVKNEEEVQKLCVLAKKHGVSLTFRAAGSSLSGQAICDGVLVMVTHFFKDAQILDNAQSIQLSCGVIGSNANALLKPYHKKIGPDPSTINTAMIGGIVANNASGMCCGVEQNSYKTLKSLRVILADGTLLDTANQESVESFKNAHKDLIEGVLNLRKEILEDKELHALIKKKYEIKNTTGYSLNALIDFEDPIEIISHLFIGSEGTLGFISSVELECVKDYAYKTCALLFYENLERCAKAAQILAALKAKQPEMISSAELMDYACLKSVKGLEGMPSVVLEIKEPNACLLIQSESDDPLILENSMQTILNALSAIPVVLDSQISSDPSIYQSWWKIRKGIFPIAASKRKSQSSVIIEDICFSQEDFVEGAKAIEGLLKKHGFKDNGIIFGHALSGNLHFVVTPILENEAERKAFENLVSEMFLMVSKSSGSIKAEHGTGRMVAPFVEMEWGEKAYKIHKQIKELFDPNGILNPDVIITNDKEIHTKNLKSIYPIEEHLDMCMECGFCERICPSKDLSLTPRQRIVIHREVEHLKERVSHGHHEDQVLLDELLKESEYLAHATCAVCHMCSTLCPLEIDTGKIALNYYQKNPKGEKIASKILNHMQTTTSMARFSLKSARLVQNLIGSHNLVSLTKGIKKFIKPFPKAFYYMPKNNAYPLENKTLKSEEKVIYFSTCINRSFAPSNKMADKRCIQEVFESLCQKAKVSVMYPNGLNALCCGKAFINYTDLTKQNNEKNHAIFLQLSDKGKIPIVLDHSACSTHFFKQMKAYKDLKVYDLSVYIEEVLSPKLKFNPINEDIGLYTMCALKLENKEELLFNLAKKCTLGEIVIHKETGCCGFAGNKGFFTPELNESALNGFQAFYQSYDLKRGFSTSSTCEIGLSEKTRFSWQHIAYLVDACTL	0.06	–	–
T18-HP0631 (natural protein, Helicobacter pylori strain 26695, UniProt O25348 2-384, looked up) FYDEKKTYQKIEERLDIVRSFNAHNEHKNLQDEFKGAGISRRDLLKWAGMMSTALALPASFAPLTLKAVEVANRLPVIWLHMAECTGCSESLLRSADPTIDSIIFDYINLEYHETIMVASGFQAEKSLHDAIEKHKNNYILMVEGGIPQGTEYFLTQGPNAETGAEECRKAAQYAAAIFAIGTCSSFGGVQAAYPNPSNAQPLHKIIDKPVINVPGCPPSEKNIVGNVLYYLMFGALPKLDAYNRPSWAYGNRIHDLCERRGHFDAGEFVEHFGDENAKRGFCLYKMGCKGPYTFNNCSKLRFNSHTSWPIGAGHGCIGCSEPNFWDTMSPFEEPLANRSIKTAFDGLGADKVADKVGTTLLSATAIGIVAHALLSKAIKNKE	–	0.24	0.08
T18-HP0654 (natural protein, Helicobacter pylori strain 26695, UniProt O25368 2-360, looked up) DFLEKVLDNQVTESKELVRLYDYDLYTLGEVADRMRQNMHQKIVYFNVNRHLNPSNICADACKFCAFSAHRKNPNPYEMSLEEILEKVKNSYNKGIKEVHIVSAHNPNYSYEWYLKVFETIKQEMPNLHLKAMTAAEVHFLSVKFNKPFELVLEDMLKAGVDSMPGGGAEIFDEEIRRKICNGKVGSSRWLEIHAYWHKLGKMSNATMLFGHIENKIHRIDHMLRIKKIQSPKNQVENKEGGFNAFIPLLYQKENNYLNVEKSPSAIEILKTIAISRILLNNIPHIKAYWATLGLNLALVAQEFGANDLDGTIEIESIQSAAGAKSRHGLEKEDLIFKIKDAGFVAVERDSLYNFIQKF	–	0.33	0.09
